Experimental findings from patent publication US20220017612A1 (TILOS THERAPEUTICS, published 2022) are described below.

In assay [1] the target is T1, human GARP and human LAP-TGFβ1 co-expressed on P3U1 cells (human, UniProt Q14392 20-662).
T1 construct: whole, on cells; also called P3U1 cells over-expressing human GARP and LAP-TGFβ1
Description: flow cytometry competition on P3U1 cells with human GARP and LAP-TGFβ1; competitor of biotin-28G11 (5 µg competitor, 0.31 µg biotin-28G11). As for the experimental part:
In the first experiment, the various humanized 28G11 candidates were tested for retention of binding to human LAP-TGFβ1 by competition with biotin-28G11 in a flow cytometry assay.
P3U1 cells over-expressing human GARP and LAP-TGFβ1 were placed in a round-bottom 96-well plate at density of 40,000 cells/well. The cells were washed with FACS buffer (25 mM HEPES, 2 mM EDTA, 2% fetal bovine serum in Hank's Balanced Salt Solution). 50 μL of 1:200 diluted TruStain Mouse FcX (BioLegend) was added to each well, followed by 50 μL of 100 ng/μL of humanized 28G11 construct (H0L0, H0L1, H0L2, H0L3, HILO, H1L1, H1L2, H1L3, H2L0, H2L1, H2L2, H2L3). The antibody was allowed to bind for 10 minutes. 50 μL of 6.2 ng/μL of biotinylated murine hybridoma 28G11_(hyb) was added to each well. The biotinylated antibody was allowed to bind for 10 minutes, and then the cells were washed twice with FACS buffer. The cells were labeled for 15 minutes with allophytocyanin-streptavidin (BioLegend), washed twice with FACS buffer, and analyzed by flow cytometry.

The target in assay [2] is T2, human LAP-TGFβ1 overexpressed on cells (human, UniProt P01137 30-390).
T2 construct: HT1080 or P3U1 cells overexpressing wild-type human LAP-TGFβ1; also called HT1080-huB1; HT1080-hβ1
Description: flow cytometry; black bar HT1080-huB1, grey bar HT1080.

Assay [3] addresses T2, human LAP-TGFβ1 overexpressed on cells. Description: flow cytometry; black bar HT1080-huB1, grey bar HT1080-null. In general terms: A flow cytometer gives signals particle by particle.
The target is the same in assay [4]. Kind of assay: flow cytometry; black bar HT1080-huB1, grey bar HT1080. The source holds these as a separate data set.

T1 sequence (chain, as listed by the source, chain 1 of 2): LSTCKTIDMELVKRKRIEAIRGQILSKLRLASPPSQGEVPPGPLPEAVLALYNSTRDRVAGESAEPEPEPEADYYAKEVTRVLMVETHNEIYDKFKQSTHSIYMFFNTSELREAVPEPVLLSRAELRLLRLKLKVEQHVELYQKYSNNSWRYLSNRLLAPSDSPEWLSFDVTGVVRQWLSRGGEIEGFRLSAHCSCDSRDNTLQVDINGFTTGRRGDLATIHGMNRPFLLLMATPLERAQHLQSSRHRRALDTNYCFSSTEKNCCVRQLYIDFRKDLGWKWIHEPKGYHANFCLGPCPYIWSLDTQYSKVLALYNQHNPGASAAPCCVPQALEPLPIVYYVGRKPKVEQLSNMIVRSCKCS
T1 sequence (Q14392 20-662, chain 2 of 2): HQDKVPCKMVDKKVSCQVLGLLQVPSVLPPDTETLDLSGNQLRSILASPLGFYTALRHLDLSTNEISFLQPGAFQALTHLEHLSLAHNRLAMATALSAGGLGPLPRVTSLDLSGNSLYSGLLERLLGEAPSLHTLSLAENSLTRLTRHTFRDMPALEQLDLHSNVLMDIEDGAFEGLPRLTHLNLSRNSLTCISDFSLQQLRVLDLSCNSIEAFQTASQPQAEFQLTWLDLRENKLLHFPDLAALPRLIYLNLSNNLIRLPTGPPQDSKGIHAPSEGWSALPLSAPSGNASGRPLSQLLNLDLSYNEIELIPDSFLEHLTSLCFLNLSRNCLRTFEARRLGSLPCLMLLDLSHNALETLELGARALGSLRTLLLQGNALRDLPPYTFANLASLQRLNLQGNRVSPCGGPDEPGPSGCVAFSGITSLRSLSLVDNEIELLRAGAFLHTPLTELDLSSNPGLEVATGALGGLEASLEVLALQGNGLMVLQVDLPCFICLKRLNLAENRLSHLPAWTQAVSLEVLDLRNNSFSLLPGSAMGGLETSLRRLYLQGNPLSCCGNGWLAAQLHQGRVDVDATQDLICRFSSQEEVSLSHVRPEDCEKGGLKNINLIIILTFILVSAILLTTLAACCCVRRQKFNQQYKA
T2 sequence (P01137 30-390): as the sequence (chain, as listed by the source, chain 1 of 2) above

B1: 28G11_H2L3 (antibody, human IgG1, kappa)
heavy: not shown
light: DIQMTQSPSSLSASVGDRLTISCRASQDISNYLNWYQQKPGKTVKLLIYYTSRLHSGVPSRFSGSGSGTDYTLTISSLQPEDVATYFCQQGDTLPWTFGQGTKLEIKRTVAAPSVFIFPPSDEQLKSGTASVVCLLNNFYPREAKVQWKVDNALQSGNSQESVTEQDSKDSTYSLSSTLTLSKADYEKHKVYACEVTHQGLSSPVTKSFNRGEC
Regarding B1, the binding result in assay [1] and in assay [2] was “binds” throughout.

B2: 28G11_H2L2 (antibody, human IgG1, kappa)
heavy: not shown
light: DIQMTQSPSSLSASVGDRVTITCRASQDISNYLNWYQQKPGKTVKLLIYYTSRLHSGVPSRFSGSGSGTDYTLTISSLQPEDVATYFCQQGDTLPWTFGQGTKLEIKRTVAAPSVFIFPPSDEQLKSGTASVVCLLNNFYPREAKVQWKVDNALQSGNSQESVTEQDSKDSTYSLSSTLTLSKADYEKHKVYACEVTHQGLSSPVTKSFNRGEC
As for B2, the binding result in assay [1] is recorded as “binds”.

B3: 28G11_H2L1 (antibody, human IgG1, kappa, V domains shown)
VH: EVQLVESGGGLVQPGGSLRLSCAASGFTFTDYYMSWVRQAPGKGLEWLGFIRNKPNGYTTEYSASVKGRFTISRDNSQSSLYLQMNSLKTEDTAVYYCARYTGGGYFDYWGQGTLLTVSS
VL: DIQMTQSPSSLSASVGDRVTITCRASQDISNYLNWYQQKPGKVPKLLIYYTSRLHSGVPSRFSGSGSGTDYTLTISSLQPEDVATYFCQQGDTLPWTFGQGTKLEIKR
Turning to B3, in assay [1], the binding result is on record as “binds”.

B4: 22F9_H1.1 variant (antibody, human IgG1, kappa, V domains shown)
VH: QVQLVQPGAEVVKPGASVKLSCKASGYTFTSYWMHWVKQRPGQGLEWIGMIHPQSGSTNYNEKFKSKATMTVDKSSSTVYMELSSLRSEDTAVYYCAYYDYAGFFDVWGQGTLVTVSS
VL: DIQLTQSPSSLSASVGDRVTITCRASKSVSTSGYSYMHWYQQKPGKAPKLLIYLASNLESGVPSRFSGSGSGTDFTLTISSLQPEDFATYYCQHSRELPYTFGGGTKVEIKR
On to B4, for which the binding result in assay [3] is “binds”.

B5: 22F9_H2.1 variant (antibody, human IgG1, kappa, V domains shown)
VH: QVQLVQPGAEVVKPGASVKLSCKASGYTFTSYWMHWVKQRPGQGLEWIGMIHPQSGSTNYNEKFKSKATLTVDKSTSTAYMELSSLRSEDTAVYYCAYYDYAGFFDVWGQGTLVTVSS
VL: DIQLTQSPSSLSASVGDRVTITCRASKSVSTSGYSYMHWYQQKPGKAPKLLIYLASNLESGVPSRFSGSGSGTDFTLTISSLQPEDFATYYCQHSRELPYTFGGGTKVEIKR
For the molecule B5, in assay [3], the binding result is recorded as “binds”.

B6: 22F9_H3.1 variant (antibody, human IgG1, kappa, V domains shown)
VH: QVQLVQPGAEVVKPGASVKLSCKASGYTFTSYWMHWVRQAPGQGLEWIGMIHPQSGSTNYNEKFKSRVTLTVDKSSSTAYMELSSLRSEDTAVYYCAYYDYAGFFDVWGQGTLVTVSS
VL: DIQLTQSPSSLSASVGDRVTITCRASKSVSTSGYSYMHWYQQKPGKAPKLLIYLASNLESGVPSRFSGSGSGTDFTLTISSLQPEDFATYYCQHSRELPYTFGGGTKVEIKR
As to B6, the binding result in assay [3] is listed as “binds”.

B7: 22F9_N54Q (antibody, human IgG1, kappa, V domains shown)
VH: QVQLVQPGAEVVKPGASVKLSCKASGYTFTSYWMHWVKQRPGQGLEWIGMIHPQSGSTNYNEKFKSKATLTVDKSSSTAYMELSSLRSEDTAVYYCAYYDYDGFFDVWGQGTLVTVSS
VL: DIQLTQSPSSLSASVGDRVTITCRASKSVSTSGYSYMHWYQQKPGKAPKLLIYLASNLESGVPSRFSGSGSGTDFTLTISSLQPEDFATYYCQHSRELPYTFGGGTKVEIKR
notes: also called 22F9_H5L0 with VH N54Q
For the molecule B7, the binding result in assay [4] is “binds”.
